Experimental data from the nanobody polyreactivity screen of Harvey et al. (2022).

experiment: yeast display, Sf9 membrane polyspecificity reagent, FACS + sequencing; frameworks hold sequencing errors
How it was run: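 In a synthetic yeast display library (Saccharomyces cerevisiae BJ5465), nanobody expression was induced with galactose for 36–48 hours. FACS gates were set low and high (top ~1%) using anti-HA fluorescence for expression and streptavidin fluorescence for binding of the Sf9 membrane reagent. Each polyreactivity label is drawn from the gate of origin.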

| Sequence | polyreactivity (PSR sort gate) |
| --- | --- |
| QVELVESGGGLVQAGGSLRLSCAASGCIFTFYAMGWYRTAPGKARELVAAISSSGTSTYYADSVKGRFTISRDNAKNTVYLQMNSLKPEDTAVYYCAAGTAYSRYGYWGQGTQVTVSS | high polyreactivity |
| QVELVESGGGLVQAGGSLRLSCAASGFTFHSNVMGWYRQAPGKERELVAAISNGGGSTYYADSVKGRFTISRDNAKNTVYLQMNSLKPEDTAVYYCDKRTYPGFGYWGQGTQVTVSS | high polyreactivity |
| QVELVESGGGLVQAGGSLRLSCAASGFTFVSYAMGWYRQAPGKEREFVATISKRGGSTYYADSVKGRFTISRDNAKNTVYLQMNSLKPEDTAVYYCAVRYPYYSYRAKLGYCGQGTQVTVSS | high polyreactivity |
| QVELVESGGGLVQAGGSLRLSCAASGSTFDPNAMGWYRQAPGKERELVASITSRGGSTYYADSVKGRFTISRDIAKNTVYLQMNSLKPEDTADYYCAAVGGATYSWNGYSWYPWHNYWGQGTQVTVSS | low polyreactivity |
| QVELVESGGGLVQAGGSLRLSCAASGSTFYRYAMGWYRQAPGKEREFVARIDWSDGSTNYADSVKGRFTISRDTAKNTVYLQMNSLKPEDTAVYYCAADTYYDTYDGEYEYWGQGTQVTVSS | low polyreactivity |
| QVELVESGGGVVQAGGSLRLSCAASGYIFRAYAMGWYRQAPGKERELVAAISSRGGSKYYADSVKGRFTSSRDNAKNTVYLQMNSLIPEDTAVYYCAAAYRKPYIGYGYWGQGTQGTVSS | high polyreactivity |
| QVELVYSGGGLVQAGGSLRLSCPASGSTFWYYAMGWSRQPPGKERELVAAINSGGSTFYADSVKGRFTISRDNAKNTVYLQMNSLKPEDTAVYYCAKRSYDYRRYYWGQGTQVTVSS | high polyreactivity |
| QVHHVESGGVLVQAGRILRVSCAASGSTFPRNAMGWYRHAPGKERELDAAITSRGGRTYYADSVKGRFTISRDNAKNTVYLQMISLKPEDTAVYYCARVGGIGSGRTGYGYWGQGSQVTVSS | high polyreactivity |
| QVHLAESGGGLVQAGGSLRLSCASSGIIFYFYAMGWYRQAPGKERELVAAISGTGGRTYYADSVKGRFTISRDNAKNTVYLQMNSLKPEDTAVYYCNADDTPVPSIRFDYWGQGTQVTVSS | low polyreactivity |
| QVHLEESGGGLVQAGGSLRLSCAASGFIFNAYAMGWYRQAPGKERELVAAISSSGGRTYYADSVKGRFTISRDNAKNTVYLQMNSLKPEVTAVYYCNTYRYYQYYRSMDYWGQGTQVTVSS | high polyreactivity |
| QVHLEESGGGLVQAGGSLRLSCAASGRIPFYAMGWYRQAPGKEREFVAAIRFSGGSTFYADSVKGRFTISRDNAKNTVYLQMNSLTPEDTAVYYCAAYLYYPFYWWRDYCGQGTQVTVSS | high polyreactivity |
| QVHLLESGGALVQAGGRLRLSCAASGRIFKTYAMGWYRQAPGKELEFVAAITASGGRTYYADSVKGRFTISRDNAKNTVYLQMNSLIPEDTAGYYCNARLVYYSYEEMDYWGQGTQVTVSS | low polyreactivity |
| QVHLQESGAGLEQAGGSLRLSCAASGYISDIGTMGCYRQAPGKEREFVATIVVGSTTNYADSVKGRFTISRDNAKNTLYLQPESGRYRGVLLRGWLLAVGKFTYWGQGTQETVSS | low polyreactivity |
| QVHLQESGGGLVQAGGSLRLSCAASGYITLAQTIGWYRQAPGQEREFVASIALGSSTYYTDSVKGSFTISRDNAKTTVYLQMNSLKPEDTAVYYCAARVGSSYAHDYWGQGTQVTVSS | low polyreactivity |
| QVHLQGSGGGLVQAGGSLRLSCAASGYIFQNDPMGWNLQAPGKERELVAGIDNGTSTNYADSVNGRFTISRDNAKNTVYLQMNSLKPEDTAVYYCSAAGQADDTLGYWGQGTEVTVSS | low polyreactivity |
| QVHLVDSGGGLVQAGGSLGLNCAASGRTLRYNAMGWYRQATGIERELVAAINWNGGSTYYADSVKGRFTISRETAMYTVYLQMNRLKPEDTAVYFCNDDFYHRYDWGQGTQVTVSS | high polyreactivity |
| QVHLVDSGGGLVQAGGSLRLSCAASGFTYYAMGWYRQAPGKERELVAAITRSGGSTYYADSVKGRFTISRDNAKNSVYLQMKSLKPEDTAVYYCAASGKALKYTARYGSWGQGTQVNVSS | high polyreactivity |
| QVHLVDSGGGLVQAGGSLRLSCAASGRTFQVYTMGWSRQAPGKERELVAAITWNGGRTRYADSVKGRFTISRDNAKNTVYLQMTSLKPEDTAVYYCNAGNWITARAGFNDWGQGTQVTVSS | high polyreactivity |
| QVHLVDSGGGLVQAGGSLRLSCAASGRTSIRYAMAWYRQAPGKERELVAAITYAAGSTYYADSVTGRFTISRDNAKNTVYLQMNSLKPEDTAVYYCNARVYYHYDFWGQGTQVTVSS | high polyreactivity |
| QVHLVDSGGGLVQAGGSLRLSCAASGSTSGTNAMGWYRQAPGKERELVAGISYRGGSTYYADSVKGRFTISRDNAKNTVYLQMNSLKPEDTAVYYCAARKLKYRREYWGQGTQVTVSS | high polyreactivity |
| QVHLVDSGGGLVQAGGSLRLSCSASGLIFSGYAMRWYRQAPGKERELVAAITRRGSRTYYADSVTGRFTISRDKAKNTVYLQMNSLKPEDTAVYYCAADRFQGRDDYWGQGTQVTVSS | high polyreactivity |

| Sequence | polyreactivity (PSR sort gate) |
| --- | --- |
| QVHLVESAAGFVQAGGSLRLSGAASGFILWYYTMGWYRQAPGKERELVAVIDWSGDSTYADSVKGRFTISLDNAKNSVYLQMNSLIPVDTAVYYWNADYFVVWARLEFNYWGQGTQVTVSS | low polyreactivity |
| QVHLVESAGGLVQAGGSLRLRCDASGRTFVLYTMGWYRQAPGKERELVAAIYGSGGRTYYADSVKGRLTISRDNAKNTVYLQMNSLKPEDTAVYYCAAYCQGLPLYGYWGQGTQVTVSS | high polyreactivity |
| QVHLVESCGGLVQAGGSLRLSCAASGITFWNYAMGRYRQAPGKETELVAAISYSGGSTYYADSVKGRFTISRDNAKNTFYLQMNSLKPEDTGVYYCAATLPTNWVRYDYWGQGTQVTVSS | low polyreactivity |
| QVHLVESGGCLVQAGGSLRLSCAASGRIYRYAMGWYRQAPGKERELVAVITRRGDGTYYADSVKGRFTISRDNAKNTVYLQMNSLKPEDTAVYYCNADQSYKRPWPYDYWGQGTQVTVSS | high polyreactivity |
| QVHLVESGGGIVQAGGSLRLSCAASGSIFGKNVMGWYRHAPGKERQLVAAITSGASTYYADSVKGRFTISRDNAKNTVYLQMNSLKPEDTPVYYCAARRWRKYYSGYNYWGQGTQVTVSS | high polyreactivity |
| QVHLVESGGGLDQAGGSLRLSCAASGSISLIYAMGWYRQAPGKERELVAAITSSGGSTYYADSVKGRFTISRDNAKNTVYLQMNSLKREDTAVYYCAAERWTRRHYSGNDYWGQGTQVTVSS | low polyreactivity |
| QVHLVESGGGLDQAGGSLRLSCAASGSTDGPYARGWSRQATGKERELVATINSSGSTNYADSLKGRFTISRDNAKNTVYLQMHSLKTEDTAVYYSASLHSYYWNDYWGQGTQVTVSS | low polyreactivity |
| QVHLVESGGGLDQAGGTLRLSCAATGSIIQSYAMGWYRQAPGKESELVAAITARGTSTYYADSVKGRFTISRDNAKNTVYLQMNSLKPEETAVYYCTTDRSRSPGDVECQSDIKRDYWGQGTQVTVSS | low polyreactivity |
| QVHLVESGGGLFQAGGSLRISCAASGSIFRFNVMGWYRQAPGKERELVAAITRGDSTNYADSVKGRFTISRDNAKNTVYLQMNSLKPEVTAVYYCAAGFYYYLRDHDYWGQGTQVTVSS | low polyreactivity |
| QVHLVESGGGLFQAGGSLRLRCAASGRIFRYNTMGWYRQAPGKERELVAAINSSGGRTYYADSVKGRFTISRDNAKNTVYLQMNSLKPDDTAVYYCAAVIYVLSGPGYDYWGQGTQVTVSE | high polyreactivity |
| QVHLVESGGGLFQAGGSLSISSASSGRTFYWYPMGWYRQAPGKERELVAAITGMGTRTYYADSVKGRFTISRDNAKNTDYLQMNSLKPEDTAVYYCNTRYYGGFDSWGQGTQVTVSS | high polyreactivity |
| QVHLVESGGGLLLAGGSLRLTCAASGSTFYSYDKGWYRQAPGKERELVAAISWNGGSTYYEDSVKGRFTISRDNAKNTVYLPMNSLKPEDTAVYYCAALRYVHGYDYWGQGTQVSVSS | high polyreactivity |
| QVHLVESGGGLLQAGGILSLSCAASGITIIVYVMGWYRQAPGKERELVATITYDDSTYADSVKGRFTISRDNAKNTVYFQMNSLKPEDTAVYYDYWGQGTQVTVSS | low polyreactivity |
| QVHLVESGGGLLQAGGSLPLSCAASGSIFYSYAMGWYRQAPGKVRELVAVISWSGGSTYYADSVKGRFTISRDNAKNTVYLQMNSLKPEDTAVYYCAADQGWEFDYWGQCTQVTVSS | low polyreactivity |
| QVHLVESGGGLLQAGGSLRLSCAASGSTFYSYAMGWYRQAPGKERELVAAITYSDGDTYYADSVKGRFTISRDNAKNTVYLQMNSLKPEDTAVYYCAAEYQGQPGTGNLEYWGQGTQVTVSS | low polyreactivity |
| QVHLVESGGGLLQAGGSLRLSSAASGSTFPFNAMGWYRPAPGKERELVAAIDDNGGTTYYADSVKGRFTISRDNAKNTFYLQMISLKPEDPAVYYCAAEVDTVRDCVQGMDYCGQGTQVTVSS | low polyreactivity |
| QVHLVESGGGLVEAGGSLRLSCADSGNIFAWYAMGWYRQAPGKERELVADISSLGGSTYYADSVKGRFTISRDNATNTVYLQMNSLKPEDTEVYYCAAVWYWTQDYDYWGQGTQVTVSS | low polyreactivity |
| QVHLVESGGGLVHAGGSLRLSSAASGSIFGANTMGWYRQAPGKERELVAGITSGARTYYADSVKGRFTISRDNAKNTVYLQMNSLKPEDTAVYYCAAKYAWRRYGFWGQGTQVTVSS | high polyreactivity |
| QVHLVESGGGLVHAGGSLRLTCAASGITSLRYAMGWYRQAPGKEREFVAAIRTIGGSTYYADSVKGRFTISRDNAKNTVYLEMNSLKPEDTPVYYCAALYFLYRSGSSHLDSWGQGTQVTVSS | high polyreactivity |
| QVHLVESGGGLVQAAGILRLSSAPSGSIFPYYAMGWYRQAPGKEREFVAAINYAGGSTYYADSVKGRFTISRDNAKNTVYLQMNSLKPEDTAVYYCNARTFGPNGKHRYGYWGQGTQVTVSS | high polyreactivity |
